Experimental data as given in US20100068742.

T1: Nictide (RLGWWRFYTLRRARQGNTKQR)
T1 chain: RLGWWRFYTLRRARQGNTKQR

T2: chicken maltose binding protein-MYPT (amino acids 714-1004), Q90623
T2 chain: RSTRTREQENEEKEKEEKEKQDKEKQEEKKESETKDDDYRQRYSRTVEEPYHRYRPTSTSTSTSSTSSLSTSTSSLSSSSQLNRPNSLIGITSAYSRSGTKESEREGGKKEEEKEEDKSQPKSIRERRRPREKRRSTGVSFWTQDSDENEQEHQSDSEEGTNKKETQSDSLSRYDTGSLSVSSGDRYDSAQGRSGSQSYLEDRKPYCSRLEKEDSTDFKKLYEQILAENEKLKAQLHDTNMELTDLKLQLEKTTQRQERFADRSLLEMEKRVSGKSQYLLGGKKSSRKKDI


Key:
[1] = target: GST-ezrin (amino acids 1-586), P15311
[2] = target: T1, Nictide (RLGWWRFYTLRRARQGNTKQR)
[3] = target: T2, chicken maltose binding protein-MYPT …
[4] = target: LRRKtide with +1Leu mutated to Ala
[5] = target: LRRKtide with -2Tyr mutated to Arg

GST-ezrin (amino acids 1-586), P15311, sequence (P15311 whole entry, the tested form may be a part): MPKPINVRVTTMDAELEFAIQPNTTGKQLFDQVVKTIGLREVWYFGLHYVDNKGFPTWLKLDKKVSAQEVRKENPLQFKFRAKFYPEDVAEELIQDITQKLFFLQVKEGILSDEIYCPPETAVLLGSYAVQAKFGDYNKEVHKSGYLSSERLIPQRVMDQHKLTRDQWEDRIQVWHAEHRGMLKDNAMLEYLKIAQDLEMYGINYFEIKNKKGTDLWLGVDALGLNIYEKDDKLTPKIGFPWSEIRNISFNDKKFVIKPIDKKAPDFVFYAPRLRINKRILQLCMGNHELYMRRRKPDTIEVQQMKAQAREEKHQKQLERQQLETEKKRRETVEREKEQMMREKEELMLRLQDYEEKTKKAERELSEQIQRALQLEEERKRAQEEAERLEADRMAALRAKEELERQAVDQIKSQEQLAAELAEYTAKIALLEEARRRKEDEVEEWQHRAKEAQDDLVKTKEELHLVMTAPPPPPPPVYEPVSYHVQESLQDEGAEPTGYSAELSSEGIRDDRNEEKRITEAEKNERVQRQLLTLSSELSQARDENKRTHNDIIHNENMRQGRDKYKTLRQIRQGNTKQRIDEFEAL

Protein	protein substrate phosphorylation (32P autoradiography) [1]	Km of peptide phosphorylation [2]	fold decrease of Vmax against LRRK2[G2019S] [2]	protein substrate phosphorylation (32P autoradiography) [3]	peptide phosphorylation [4]	fold decrease of Km against wild type LRRKtide [5]	fold increase of Vmax against wild type LRRKtide [5]
GST-LRRK2 1326-2527 [wild type] (protein) LKKAVPYNRMKLMIVGNTGSGKTTLLQQLMKTKKSDLGMQSATVGIDVKDWPIQIRDKRKRDLVLNVWDFAGREEFYSTHPHFMTQRALYLAVYDLSKGQAEVDAMKPWLFNIKARASSSPVILVGTHLDVSDEKQRKACMSKITKELLNKRGFPAIRDYHFVNATEESDALAKLRKTIINESLNFKIRDQLVVGQLIPDCYVELEKIILSERKNVPIEFPVIDRKRLLQLVRENQLQLDENELPHAVHFLNESGVLLHFQDPALQLSDLYFVEPKWLCKIMAQILTVKVEGCPKHPKGIISRRDVEKFLSKKRKFPKNYMSQYFKLLEKFQIALPIGEEYLLVPSSLSDHRPVIELPHCENSEIIIRLYEMPYFPMGFWSRLINRLLEISPYMLSGRERALRPNRMYWRQGIYLNWSPEAYCLVGSEVLDNHPESFLKITVPSCRKGCILLGQVVDHIDSLMEEWFPGLLEIDICGEGETLLKKWALYSFNDGEEHQKILLDDLMKKAEEGDLLVNPDQPRLTIPISQIAPDLILADLPRNIMLNNDELEFEQAPEFLLGDGSFGSVYRAAYEGEEVAVKIFNKHTSLRLLRQELVVLCHLHHPSLISLLAAGIRPRMLVMELASKGSLDRLLQQDKASLTRTLQHRIALHVADGLRYLHSAMIIYRDLKPHNVLLFTLYPNAAIIAKIADYGIAQYCCRMGIKTSEGTPGFRAPEVARGNVIYNQQADVYSFGLLLYDILTTGGRIVEGLKFPNEFDELEIQGKLPDPVKEYGCAPWPMVEKLIKQCLKENPQERPTSAQVFDILNSAELVCLTRRILLPKNVIVECMVATHHNSRNASIWLGCGHTDRGQLSFLDLNTEGYTSEEVADSRILCLALVHLPVEKESWIVSGTQSGTLLVINTEDGKKRHTLEKMTDSVTCLYCNSFSKQSKQKNFLLVGTADGKLAIFEDKTVKLKGAAPLKILNIGNVSTPLMCLSESTNSTERNVMWGGCGTKIFSFSNDFTIQKLIETRTSQLFSYAAFSDSNIITVVVDTALYIAKQNSPVVEVWDKKTEKLCGLIDCVHFLREVMVKENKESKHKMSYSGRVKTLCLQKNTALWIGTGGGHILLLDLSTRRLIRVIYNFCNSVRVMMTAQLGSLKNVMLVLGYNRKNTEGTQKQKEIQSCLTVWDINLPHEVQNLEKHIEVRKELAEKMRRTSVE	LRRK2 phosphorylated ezrin	a similar Km	~2-fold lower Vmax	did not phosphorylate MYPT	–	–	–
rat ROCK2 (amino acids 2-543) (protein) SRPPPTGKMPGAPEAAAGDGAGAGRQRKLEALIRDPRSPINVESLLDGLNSLVLDLDFPALRKNKNIDNFLNRYEKIVKKIRGLQMKAEDYDVVKVIGRGAFGEVQLVRHKASQKVYAMKLLSKFEMIKRSDSAFFWEERDIMAFANSPWVVQLFCAFQDDRYLYMVMEYMPGGDLVNLMSNYDVPEKWAKFYTAEVVLALDAIHSMGLIHRDVKPDNMLLDKHGHLKLADFGTCMKMDETGMVHCDTAVGTPDYISPEVLKSQGGDGYYGRECDWWSVGVFLFEMLVGDTPFYADSLVGTYSKIMDHKNSLCFPEDTEISKHAKNLICAFLTDREVRLGRNGVEEIKSASFFKNDQWNWDNIRETAAPVVPELSSDIDSSNFDDIEDDKGDVETFPIPKAFVGNQLPFIGFTYFRENLLLSDSPPCRENDAIQTRKSEESQEIQKKLYALEEHLSSEVQAKEELEQKCKSINTRLEKTAKELEEEITFRKNVESTLRQLEREKALLQHKNAEYQRKADHEADKKRNLENDVNSLKDQLEDL	but barely ezrin	–	–	ROCK2 phosphorylated MYPT	abolished phosphorylation by ROCK2	decreased the Km value over 60-fold	increased the Vmax over 5-fold
